This assay deals with human LH3 protein with His-tag at the amino-terminus, produced in Sf9 cells (human) (UniProt O60568). Description: cell-based or functional assay.
Sequence of human LH3 protein with His-tag at the amino-terminus, produced in Sf9 cells (human) (O60568 25-738): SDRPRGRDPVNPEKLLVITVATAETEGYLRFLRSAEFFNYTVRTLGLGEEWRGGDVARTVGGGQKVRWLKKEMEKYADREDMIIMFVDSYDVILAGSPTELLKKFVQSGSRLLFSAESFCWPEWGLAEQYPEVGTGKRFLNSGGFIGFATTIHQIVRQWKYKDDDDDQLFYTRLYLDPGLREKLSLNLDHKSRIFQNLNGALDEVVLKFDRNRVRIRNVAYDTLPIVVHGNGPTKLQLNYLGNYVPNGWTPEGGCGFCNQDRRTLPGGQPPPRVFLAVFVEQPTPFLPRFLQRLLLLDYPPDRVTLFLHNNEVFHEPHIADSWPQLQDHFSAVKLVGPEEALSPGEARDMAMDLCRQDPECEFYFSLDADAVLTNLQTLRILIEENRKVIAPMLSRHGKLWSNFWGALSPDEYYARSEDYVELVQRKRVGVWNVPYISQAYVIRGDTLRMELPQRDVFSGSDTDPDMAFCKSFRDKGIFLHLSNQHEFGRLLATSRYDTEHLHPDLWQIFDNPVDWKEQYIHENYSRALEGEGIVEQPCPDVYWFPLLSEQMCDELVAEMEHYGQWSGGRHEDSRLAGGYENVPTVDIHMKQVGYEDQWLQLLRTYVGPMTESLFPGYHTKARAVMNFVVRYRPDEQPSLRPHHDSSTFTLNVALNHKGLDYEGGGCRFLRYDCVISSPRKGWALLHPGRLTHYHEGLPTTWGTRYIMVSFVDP

Regarding “monoclonal antibodies against His-tag (Clontech) (antibody)”, the GGT activity in the presence of antibody (% of activity with nonimmune serum) was 100%.

(Values after US20050048600A1.)
